Measurements taken from patent publication US20220267442A1.

Target: TGFβ1 (human) (UniProt P01137)
Assay: SPR

Sequence of TGFβ1 (human) (P01137 279-390): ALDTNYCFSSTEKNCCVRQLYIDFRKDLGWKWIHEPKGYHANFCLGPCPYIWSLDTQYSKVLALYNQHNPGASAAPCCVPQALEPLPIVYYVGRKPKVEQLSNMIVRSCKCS

Kd: 26.6 nM
Substance: αTGF-β (1D11)
